Assay results as given in PMC6992001.
“And” between values parts separate entries of the source, which are not always exact repeats. Equal values may be shown once.

Biological target: Pomacea canaliculata hemocyanin (PcH), native (Pomacea canaliculata)
Experiment: negative-stain transmission electron microscopy; native PcH 0.12 g/L in 20 mM Tris-HCl pH 7.4, 20 mM CaCl2, 20 mM MgCl2; 2% uranyl acetate, room temperature; self-association of subunits into decamers stacked to multi-decamers

“Pomacea canaliculata hemocyanin (PcH), native (complex)” was tested, and the stoichiometry N was 20 subunits and 30 subunits and 40 subunits.
